The target in test [1] is monkey PD-1 (ACRO, His tag) (monkey) (UniProt B0LAJ3). Nature of the test: ELISA, monkey PD-1-His coated at 1 ug/mL, anti-human IgG Fc detection. On the technique in general: ELISA stands for enzyme-linked immunosorbent assay.
For test [2] the target is unchanged. In words: ELISA, monkey PD-1-His coated at 1 ug/mL, anti-human IgG Fc detection, OD450.
Test [3] has as its target human VEGF (ACRO, His tag) (human) (UniProt P15692). Nature of the test: ELISA, human VEGF-His coated at 50 ng/ml, anti-human IgG Fc detection, OD450; negative control.
The target in test [4] is biotin-labeled human VEGF (ACRO, biotinylated protein) (human) (UniProt P15692). Nature of the test: bridging ELISA: human PD-1-His coated at 1 ug/mL, antibody, then biotinylated human VEGF at 50 ng/ml and streptavidin-HRP, OD450; single-target control.

EC50 and TOP OD data for two substances are collected here from patent US20250145701A1.

Sequence of monkey PD-1 (ACRO, His tag) (monkey) (B0LAJ3 entry or part of it limits assumed, form in doubt): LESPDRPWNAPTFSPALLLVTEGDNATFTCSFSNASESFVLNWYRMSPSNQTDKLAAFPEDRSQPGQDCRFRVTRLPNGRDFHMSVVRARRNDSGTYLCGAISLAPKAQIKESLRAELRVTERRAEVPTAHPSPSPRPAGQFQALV
Sequence of human VEGF (ACRO, His tag) (human) (P15692 other isoform, or with tags, fused parts or gaps limits assumed): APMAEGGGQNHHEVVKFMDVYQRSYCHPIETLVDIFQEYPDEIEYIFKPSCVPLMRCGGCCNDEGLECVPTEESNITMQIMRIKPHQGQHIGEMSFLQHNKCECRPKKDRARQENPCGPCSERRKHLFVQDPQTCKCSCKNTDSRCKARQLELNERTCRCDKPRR
Sequence of biotin-labeled human VEGF (ACRO, biotinylated protein) (human) (P15692 other isoform, or with tags, fused parts or gaps limits assumed): as above

Usually EC50 stands for the concentration giving half of the maximal effect. Consider Keytruda (pembrolizumab) (antibody), for which the 50% effective concentration (EC50) in test [1] was 0.187 nM. This substance also showed a TOP OD in test [2] of 3.08 OD.
The substance Opdivo (nivolumab) (antibody) had a 50% effective concentration (EC50) in test [1] of 0.153 nM. The TOP OD in test [2] is 2.99 OD; in test [3] it was 0.048 OD; in test [4] it was 0.048 OD.
